According to US20250231186A1:
Each block holds one substance with its values, some of them ahead of it.

Columns and labels:
[1] = biological target: MCC 88-103 peptide tethered to full-length I-E^k on M12 cells (mouse) (UniProt P04224); assay: cell coupling (CATS) with MCC M12 cells, flow cytometry
[2] = biological target: T102S altered peptide ligand of MCC tethered to full-length I-E^k on M12 cells (mouse) (UniProt P04224); assay: cell coupling (CATS) of transferred 5c.c7 CD4+ T cells with T102S M12 cells, flow cytometry
[3] = biological target: MCC 88-103 peptide tethered to full-length I-E^k on M12 cells (mouse) (UniProt P04224); assay: cell coupling (CATS) of 5c.c7 CD4+ T cells with MCC M12 cells, Hb M12 as dump, flow cytometry
[4] = biological target: mouse hemoglobin d allele Hb 64-76 peptide tethered to full-length I-E^k on M12 cells (mouse) (UniProt P04224); assay: cell coupling (CATS) of B10.A CD4+ T cells with M12 cells pre-blocked with 20 µg/mL 14-4-4S; competitor: TCRs of B10.A CD4+ T cells
[5] = biological target: MCC 88-103 peptide tethered to full-length I-E^k on M12 cells (mouse) (UniProt P04224); assay: as above
[6] = biological target: T102S altered peptide ligand of MCC tethered to full-length I-E^k on M12 cells (mouse) (UniProt P04224); assay: as above
[7] = biological target: I-E^k MHCII on tethered pMHC-II expressing M12 cells; assay: cell coupling (CATS) of B10.A CD4+ T cells with pre-blocked pMHC+ M12 cells
[8] = biological target: 5c.c7 TCR on CD4+ T cells from 5c.c7 TCR Rag KO mice (mouse); assay: T102S tetramer staining of transferred 5c.c7 CD4+ T cells, flow cytometry

- coupling percentage [1]: 30%
Substance: 5c.c7 TCR expressed on 58α^-β^- hybridoma cells (α chain fused C-terminally to mEGFP)

- percentage of 5c.c7 CD4+ T cells identified [2]: 70%
- coupling percentage [3]: 60 to 85%
Substance: 5c.c7 TCR on CD4+ T cells from 5c.c7 TCR Rag KO mice

- fold decrease in coupling when blocked [4]: 4 fold
- fold decrease in coupling when blocked [5]: 4 fold
- fold decrease in coupling when blocked [6]: 3 fold
- fold lower relative coupling in blocked state [7]: 3 to 5 fold
Substance: 14-4-4S anti-I-E^k MHCII antibody

- percentage of 5c.c7 CD4+ T cells identified [8]: 0%
Substance: T102S:I-E^k tetramer (from UniProt P22629 37-163; P04224 26-216) (peptide-MHC)
